Experimental data: patent US20180237502A1 (INTEGRATED BIOTHERAPEUTICS, published 2018)

T1: SUDV GPdTM (Sudan virus (SUDV), UniProt Q66814 33-637)
T1 sequence: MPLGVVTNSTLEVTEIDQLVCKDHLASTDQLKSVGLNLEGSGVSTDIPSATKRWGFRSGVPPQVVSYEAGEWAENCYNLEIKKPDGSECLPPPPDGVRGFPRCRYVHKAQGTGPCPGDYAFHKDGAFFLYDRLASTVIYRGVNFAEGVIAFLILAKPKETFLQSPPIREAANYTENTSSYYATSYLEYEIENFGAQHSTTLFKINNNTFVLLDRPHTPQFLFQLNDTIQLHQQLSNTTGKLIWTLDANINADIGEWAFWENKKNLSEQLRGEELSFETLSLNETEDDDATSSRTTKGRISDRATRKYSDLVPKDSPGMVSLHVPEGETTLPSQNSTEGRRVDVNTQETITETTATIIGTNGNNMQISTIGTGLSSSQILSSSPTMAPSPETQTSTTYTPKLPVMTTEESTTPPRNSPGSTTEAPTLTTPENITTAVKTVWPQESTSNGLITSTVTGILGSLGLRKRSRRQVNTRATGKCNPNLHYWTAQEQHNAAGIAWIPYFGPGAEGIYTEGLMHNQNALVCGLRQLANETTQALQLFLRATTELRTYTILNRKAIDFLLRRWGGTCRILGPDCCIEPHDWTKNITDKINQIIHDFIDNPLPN

B1: murine monoclonal antibody 4B8 (antibody, V domains shown)
VH: EVQLQESGPGILQPSQTLSLTCSFSGFSLRTLGMGVGWIRQSSGKGLEWLAHIWWSDENYYNPALKSRLTISKDTSKNQVFLRIANVDTAETATYYCARIAYDGYFDYWGQGTSLTVSS
VL: KFPSQLLLLLLFGIPGDRVTITCKASEDIYNRLAWYQQKPGNAPRLLISGATSLETGVPSRFSGSGSGKDYTLSITSLQTEDVATYYCQQYWTTPWTFGGGTKLEIKR
notes: also called m4B8
B2: murine monoclonal antibody 16G8 (antibody, V domains shown)
VH: EVQLQESGPGLVKPGASVKISCKASGYSFTGYYMNWVKQSPEKSLEWIGEINPSTGGTTYNQKFKAKATLTVDKSSSTAYMQLKSLTSEDSAVYYCVRYSHYYGSGSWYFDVWGTGTTVTVSS
VL: DIQMTQSPASLSASVGETVTITCRASENIYSNLAWYQQKQGKSPQLLVNAATNLADGVPSRFSGSGSGTQFSLKINSLQPEDFGSYYCQHFYVTPYMFGSGTKLEIKR
notes: also called m16G8
B3: murine monoclonal antibody 8C4 (antibody, V domains shown)
VH: EVQLQESGPELKKPGETVKISCKASGYTFTTYGMSWVKQAPGKGLKWMGRINTYSGVPTYADEFKGRFAFSLENSASTAYLQINNLKNEDTATYFCARGDGGHWFANWGQGTLVTVSA
VL: DIQMTQSPSSLSASLGGKVTITCKASQDINKNIAWYQHKPGKGPRLLIWYKSALQPGIPSRFSGSGSGRDYSFSISNLEPEDIATYSCLQYDNLPPTFGGGTKLEIKR
notes: also called m8C4
B4: murine monoclonal antibody 2D8 (antibody, V domains shown)
VH: EVQLQESGGELVRPGTSVKISCKASGYTFTNFWLGWIKERPGHGLEWIGDIYPGGHYTNYNENFKGKATLTADTSSNTAYMQVSSLTSEDSAVYFCFTQYYDMDYWGQGTSVTVSS
VL: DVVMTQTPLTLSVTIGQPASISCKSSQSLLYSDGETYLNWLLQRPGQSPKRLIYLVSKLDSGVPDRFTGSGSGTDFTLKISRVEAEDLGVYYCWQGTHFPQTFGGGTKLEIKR
B5: murine monoclonal antibody 17C6 (antibody, V domains shown)
VH: EVQLQESGPGLVQPSQSLSITCTVSGFSLTSYGVHWVRQSPGKGLEWLGVIWSGGSTDYNAAFISRLSISKDNSKSQVFFKMNSLQADDTAIYYCARNWFDYDNYYSMDYWGQGTSVTVSS
VL: DIQMTQTTSSLSASLGDRVTISCRASQDISNYLNWYQQKPDGTVKLLIYYTSRLHSGVPSRFSGSGSGTDFSLTISNQEPEDIATYYCQQYSNLPWTFGGGTKLEIKR

Assays:
SUDV GPdTM = biological target: T1, SUDV GPdTM
SUDV GPddmuc = SUDV GPddmuc (Sudan virus (SUDV), UniProt Q66814 33-632)
MARV GPddmuc = biological target: T2, MARV GPddmuc (Marburg virus (MARV), UniProt P35253 19-637); assay: ELISA, purified GPddmuc immobilized, serial dilutions of purified mouse mAb
T2 construct: also called Marburg virus glycoprotein GPddmuc

| Binder | EC50 (SUDV GPdTM) | EC50 (SUDV GPddmuc) | binding result (MARV GPddmuc) |
| --- | --- | --- | --- |
| B1 | 0.088 µg/mL | 0.095 µg/mL | no binding |
| B2 | > 10 µg/mL | – | – |
| B3 | 0.15 µg/mL | – | – |
| B4 | > 10 µg/mL | – | – |
| B5 | 2 µg/mL | – | – |
